Data as given in patent US7858298.

Experiments:
[1] = target: human CCR5 expressed on the cell surface (human) (UniProt P51681); test: cell-based or functional assay
[2] = target: CD4 on CD4+ target cells (human) (UniProt P01730); test: cell-based or functional assay

recombinant human RANTES, sequence (P13501 24-91): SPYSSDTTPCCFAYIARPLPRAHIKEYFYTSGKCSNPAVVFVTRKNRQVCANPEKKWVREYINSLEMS
recombinant human MIP-1α, sequence (P10147 27-92 limits assumed): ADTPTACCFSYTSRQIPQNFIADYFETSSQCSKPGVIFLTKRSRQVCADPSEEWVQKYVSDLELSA
recombinant human MIP-1β, sequence (P13236 24-92 limits assumed): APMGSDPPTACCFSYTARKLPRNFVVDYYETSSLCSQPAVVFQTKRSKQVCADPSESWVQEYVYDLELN

RANTES + MIP-1α + MIP-1β
% Fusion (RET assay), LW5 CD4+ cells with HeLa-JR-FL cells; R/Mα/Mβ 106/533/133 ng/ml [1]: 39%
% Fusion (RET assay), PM1 cells with HeLa-JR-FL cells; R/Mα/Mβ 80/400/100 ng/ml [1]: 1%
% luciferase activity, entry of ADA env-complemented virus into PM1 cells; R/Mα/Mβ 50/50/50 ng/ml [1]: 3%
% luciferase activity, entry of BaL env-complemented virus into PM1 cells; R/Mα/Mβ 50/50/50 ng/ml [1]: 2%
% luciferase activity, entry of JR-FL env-complemented virus into LW4 CD4+ T-cells; R/Mα/Mβ 200/200/200 ng/ml [1]: 14%
% luciferase activity, entry of JR-FL env-complemented virus into LW5 CD4+ T-cells; R/Mα/Mβ 200/200/200 ng/ml [1]: 15%
luciferase activity, ADA entry into 3T3-CD4 cells expressing CKR-5, with R/Mα/Mβ 400 ng/ml each (28400 without) (luciferase activity (unit not given)) [1]: 1220
luciferase activity, ADA entry into COS-CD4 cells expressing CKR-5, with R/Mα/Mβ 400 ng/ml each (153000 without) (luciferase activity (unit not given)) [1]: 3210
luciferase activity, ADA entry into HeLa-CD4 cells expressing CKR-5, with R/Mα/Mβ 400 ng/ml each (310000 without) (luciferase activity (unit not given)) [1]: 6340
luciferase activity, BaL entry into 3T3-CD4 cells expressing CKR-5, with R/Mα/Mβ 400 ng/ml each (11700 without) (luciferase activity (unit not given)) [1]: 756
luciferase activity, BaL entry into COS-CD4 cells expressing CKR-5, with R/Mα/Mβ 400 ng/ml each (58800 without) (luciferase activity (unit not given)) [1]: 756
luciferase activity, BaL entry into HeLa-CD4 cells expressing CKR-5, with R/Mα/Mβ 400 ng/ml each (104000 without) (luciferase activity (unit not given)) [1]: 750

monoclonal antibody OKT4A
% Fusion (RET assay), LW5 CD4+ cells with HeLa-BRU cells; OKT4A 3 ug/ml [2]: 0%
% Fusion (RET assay), LW5 CD4+ cells with HeLa-JR-FL cells; OKT4A 3 ug/ml [2]: 0%

recombinant human MIP-1α (from UniProt P10147 27-92) (ligand)
% Fusion (RET assay), LW5 CD4+ cells with HeLa-JR-FL cells; MIP-1α 533 ng/ml [1]: 72%
% Fusion (RET assay), PM1 cells with HeLa-JR-FL cells; MIP-1α 400 ng/ml [1]: 39%
% luciferase activity, entry of ADA env-complemented virus into PM1 cells; MIP-1α 100 ng/ml [1]: 54%
% luciferase activity, entry of BaL env-complemented virus into PM1 cells; MIP-1α 100 ng/ml [1]: 54%

recombinant human MIP-1β (from UniProt P13236 24-92) (ligand)
% Fusion (RET assay), LW5 CD4+ cells with HeLa-JR-FL cells; MIP-1β 133 ng/ml [1]: 44%
% Fusion (RET assay), PM1 cells with HeLa-JR-FL cells; MIP-1β 100 ng/ml [1]: 13%
% luciferase activity, entry of ADA env-complemented virus into PM1 cells; MIP-1β 100 ng/ml [1]: 6%
% luciferase activity, entry of BaL env-complemented virus into PM1 cells; MIP-1β 100 ng/ml [1]: 1%

recombinant human RANTES (from UniProt P13501 24-91) (ligand)
% Fusion (RET assay), LW5 CD4+ cells with HeLa-JR-FL cells; RANTES 106 ng/ml [1]: 65%
% Fusion (RET assay), PM1 cells with HeLa-JR-FL cells; RANTES 80 ng/ml [1]: 8%
% luciferase activity, entry of ADA env-complemented virus into PM1 cells; RANTES 100 ng/ml [1]: 1%
% luciferase activity, entry of BaL env-complemented virus into PM1 cells; RANTES 100 ng/ml [1]: 1%
